This is an account of results in patent publication US20110081354A1 (Bristol-Myers Squibb, published 2011).

For assay [1], the target named is T1, chimeric CTLA-4 protein comprising the extracellular and transmembrane domains of human CTLA-4 linked to the … (human; murine, UniProt P16410 36-187; P24161 52-164, limits assumed).
T1 construct: domain: extracellular and transmembrane domains;domain: intracellular domain; also called cell surface CTLA4; hCTLA4+ cells
Description: flow cytometry on cells expressing chimeric human CTLA-4/CD3zeta; PE anti-human IgG detection.

Assay [2] deals with T2, CTLA-4-Ig fusion protein comprising the extracellular domain of human CTLA-4 fused to the Fc region of human … (human, UniProt P16410 36-161).
T2 construct: extracellular domain; also called CTLA-4 Hu Ig; soluble human CTLA-4 fusion protein; not shown: Fc region of human immunoglobulin
T2 sequence (looked up): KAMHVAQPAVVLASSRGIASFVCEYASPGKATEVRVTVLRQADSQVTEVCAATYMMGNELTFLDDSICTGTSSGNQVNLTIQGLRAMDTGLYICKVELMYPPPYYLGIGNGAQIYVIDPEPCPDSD
Briefly: blocking assay, flow cytometry: inhibition of CTLA-4-Ig binding to mouse B7-1 expressing cells.

Numbering of substitutions follows the chain as printed.

B1: 3A4 human monoclonal antibody (antibody, V domains shown)
VH: QVQVVESGGGVVQPGRSLRLSCAASGFTFSSYGMHWVRQAPGKGLEWVAVIWYDGSNKYYVDSVKGRFTISRDNSKNTLYLQMNSLRAEDTAVYYCARGPGYSSSFDYWGQGTLVTVSS
VL: DIQMTQSPSSLSASVGDRVTITCRASQGISSWLAWYQQKPEKAPKSLIYAASSLQSGVPSRFSGSGSGTDFTLTISSLQPEDFATYYCQQYNSYPLTFGGGTKVEIK
notes: Purified human IgG kappa antibody from a hybridoma (HuMab mouse); also called mAb 3A4
On to B1, for which the concentration for a half-maximal effect (EC50) in assay [1] is 0.661 nM; in assay [2] it was 7.41 nM.

B2: 6C10 human monoclonal antibody (antibody, V domains shown)
VH: B1 VH with V4L, A23T, Y32H, I51V, Y53F, P100S, S105G
VL: B1 VL
notes: Purified human IgG kappa antibody from a hybridoma (HuMab mouse); also called mAb 6C10
Turning to B2, the EC50 in assay [1] amounted to 0.247 nM; in assay [2] it was 15.3 nM.
